Patent US20160264649A1

Legend:
Assay in all cases: cell-based or functional assay
[1] = biological target: HIV-1 Env of pseudovirus isolate MGRM-G-019 (subtype G) (HIV-1)
[2] = biological target: HIV-1 Env of isolate MGRM-D-003 (subtype D) (HIV-1)
[3] = biological target: HIV-1 Env of isolate MGRM-D-001 (subtype D) (HIV-1)
[4] = biological target: HIV-1 Env of pseudovirus isolate MGRM-G-017 (subtype G) (HIV-1)
[5] = biological target: HIV-1 Env of pseudovirus isolate MGRM-G-006 (subtype G) (HIV-1)
[6] = biological target: HIV-1 Env of isolate MGRM-D-018 (subtype D) (HIV-1)
[7] = biological target: HIV-1 Env of isolate MGRM-D-021 (subtype D) (HIV-1)
[8] = biological target: HIV-1 Env of isolate MGRM-F1-022 (subtype F) (HIV-1)
[9] = biological target: HIV-1 Env of isolate MGRM-F1-023 (subtype F) (HIV-1)
[10] = biological target: HIV-1 Env of pseudovirus isolate MGRM-G-028 (subtype G) (HIV-1)
[11] = biological target: HIV-1 Env of pseudovirus isolate MGRM-G-027 (subtype G) (HIV-1)
[12] = biological target: HIV-1 Env of isolate MGRM-D-002 (subtype D) (HIV-1)
[13] = biological target: HIV-1 Env of pseudovirus isolate MGRM-G-016 (subtype G) (HIV-1)
[14] = biological target: HIV-1 Env of pseudovirus isolate MGRM-G-011 (subtype G) (HIV-1)
[15] = biological target: HIV-1 Env of isolate MGRM-D-012 (subtype D) (HIV-1)
[16] = biological target: HIV-1 Env of isolate MGRM-D-016 (subtype D) (HIV-1)
[17] = biological target: HIV-1 Env of isolate 98CN006 (subtype CRF08_BC) (HIV-1)
[18] = biological target: HIV-1 Env of isolate MGRM-F1-021 (subtype F) (HIV-1)
[19] = biological target: HIV-1 Env of isolate MGRM-D-020 (subtype D) (HIV-1)
[20] = biological target: HIV-1 Env of isolate MGRM-D-019 (subtype D) (HIV-1)
[21] = biological target: HIV-1 Env of isolate MGRM-F1-006 (subtype F) (HIV-1)
[22] = biological target: HIV-1 Env of isolate MGRM-F1-016 (subtype F) (HIV-1)
[23] = biological target: HIV-1 Env of isolate MGRM-D-022 (subtype D) (HIV-1)
[24] = biological target: HIV-1 Env of isolate MGRM-D-029 (subtype D) (HIV-1)
[25] = biological target: HIV-1 Env of isolate 92UG005 (subtype D) (HIV-1)
[26] = biological target: HIV-1 Env of pseudovirus isolate MGRM-G-024 (subtype G) (HIV-1)
[27] = biological target: HIV-1 Env of isolate MGRM-D-024 (subtype D) (HIV-1)
[28] = biological target: HIV-1 Env of isolate 92UG046 (subtype D) (HIV-1)
[29] = biological target: HIV-1 Env of isolate MGRM-D-026 (subtype D) (HIV-1)
[30] = biological target: HIV-1 Env of isolate MGRM-D-014 (subtype D) (HIV-1)
[31] = biological target: HIV-1 Env of isolate MGRM-F1-018 (subtype F) (HIV-1)
[32] = biological target: HIV-1 Env of pseudovirus isolate MGRM-G-004 (subtype G) (HIV-1)
[33] = biological target: HIV-1 Env of isolate MGRM-D-011 (subtype D) (HIV-1)
[34] = biological target: HIV-1 Env of isolate MGRM-D-028 (subtype D) (HIV-1)
[35] = biological target: HIV-1 Env of pseudovirus isolate MGRM-G-009 (subtype G) (HIV-1)
[36] = biological target: HIV-1 Env of isolate MGRM-F1-008 (subtype F) (HIV-1)
[37] = biological target: HIV-1 Env of isolate MGRM-D-005 (subtype D) (HIV-1)
[38] = biological target: HIV-1 Env of isolate MGRM-F1-010 (subtype F) (HIV-1)
[39] = biological target: envelope of aMLV pseudovirus (negative control)
[40] = biological target: HIV-1 Env of isolate MGRM-F1-004 (subtype F) (HIV-1)
[41] = biological target: HIV-1 Env of isolate MGRM-F1-013 (subtype F) (HIV-1)
[42] = biological target: HIV-1 Env of pseudovirus isolate MGRM-G-001 (subtype G) (HIV-1)
[43] = biological target: HIV-1 Env of isolate 92UG114 (subtype D) (HIV-1)
[44] = biological target: HIV-1 Env of isolate 98CN009 (subtype CRF07_BC) (HIV-1)
[45] = biological target: HIV-1 Env of isolate 92UG024 (subtype D) (HIV-1)
[46] = biological target: HIV-1 Env of pseudovirus isolate MGRM-G-014 (subtype G) (HIV-1)
[47] = biological target: HIV-1 Env of isolate MGRM-F1-017 (subtype F) (HIV-1)
[48] = biological target: HIV-1 Env of pseudovirus isolate MGRM-G-015 (subtype G) (HIV-1)
[49] = biological target: HIV-1 Env of isolate 92UG001 (subtype D) (HIV-1)
[50] = biological target: HIV-1 Env of isolate MGRM-D-008 (subtype D) (HIV-1)
[51] = biological target: HIV-1 Env of isolate MGRM-D-013 (subtype D) (HIV-1)
[52] = biological target: HIV-1 Env of pseudovirus isolate MGRM-G-013 (subtype G) (HIV-1)
[53] = biological target: HIV-1 Env of isolate MGRM-F1-012 (subtype F) (HIV-1)
[54] = biological target: HIV-1 Env of isolate MGRM-F1-020 (subtype F) (HIV-1)
[55] = biological target: HIV-1 Env of isolate MGRM-D-004 (subtype D) (HIV-1)
[56] = biological target: HIV-1 Env of isolate MGRM-F1-015 (subtype F) (HIV-1)
[57] = biological target: HIV-1 Env of pseudovirus isolate MGRM-G-025 (subtype G) (HIV-1)
[58] = biological target: HIV-1 Env of isolate MGRM-F1-014 (subtype F) (HIV-1)

B1: PGT-137 (antibody, V domains shown)
VH: EVHLEESGPGLVRPSETLSLTCTASGGSIRGGEWGDSDYHWGWVRHSPEKGLEWIGSIHWRGTTHYNAPFRGRGRLSIDLSRNQFSLRLTSVTAEDTAVYYCVKHKYHDIVMVVPIAGWFDPWGQGLQVTVSS
VL: EIMMTQSPAILSVSPGDRATLSCRASQSVKNNLAWYQKRPGQAPRLLIFDTSSRASGIPARFSGGGSGTEFTLTVNSMQSEDFATYYCQQYEEWPRTFGQGTKVEIK
Q: Which results are given for B1?
A: IC50 [1]: 0.126 µg/mL; IC50 (neutralization) [2]: > 50 µg/mL; IC50 (neutralization) [3]: > 50 µg/mL; IC50 [4]: 34.9 µg/mL; IC50 [5]: > 50 µg/mL; IC50 (neutralization) [6]: 15.1 µg/mL; IC50 (neutralization) [7]: > 50 µg/mL; IC50 (neutralization) [8]: 6.23 µg/mL; IC50 (neutralization) [9]: > 50 µg/mL; IC50 [10]: > 50 µg/mL; IC50 [11]: 0.228 µg/mL; IC50 (neutralization) [12]: > 50 µg/mL; IC50 [13]: > 50 µg/mL; IC50 [14]: > 50 µg/mL; IC50 (neutralization) [15]: > 50 µg/mL; IC50 (neutralization) [16]: > 50 µg/mL; IC50 (neutralization) [17]: 1.22 µg/mL; IC50 (neutralization) [18]: > 50 µg/mL; IC50 (neutralization) [19]: > 50 µg/mL; IC50 (neutralization) [20]: > 50 µg/mL; IC50 (neutralization) [21]: > 50 µg/mL; IC50 (neutralization) [22]: > 50 µg/mL; IC50 (neutralization) [23]: > 50 µg/mL; IC50 (neutralization) [24]: > 50 µg/mL; IC50 (neutralization) [25]: > 50 µg/mL; IC50 [26]: 0.051 µg/mL; IC50 (neutralization) [27]: > 50 µg/mL; IC50 (neutralization) [28]: > 50 µg/mL; IC50 (neutralization) [29]: > 50 µg/mL; IC50 (neutralization) [30]: > 50 µg/mL; IC50 (neutralization) [31]: > 50 µg/mL; IC50 [32]: > 50 µg/mL; IC50 (neutralization) [33]: 6.3 µg/mL; IC50 (neutralization) [34]: > 50 µg/mL; IC50 [35]: > 50 µg/mL; IC50 (neutralization) [36]: > 50 µg/mL; IC50 (neutralization) [37]: > 50 µg/mL; IC50 (neutralization) [38]: > 50 µg/mL; IC50 [39]: > 50 µg/mL; IC50 (neutralization) [40]: 40.3 µg/mL; IC50 (neutralization) [41]: > 50 µg/mL; IC50 [42]: 41.7 µg/mL; IC50 (neutralization) [43]: > 50 µg/mL; IC50 (neutralization) [44]: 5.06 µg/mL; IC50 (neutralization) [45]: 0.106 µg/mL; IC50 [46]: > 50 µg/mL; IC50 (neutralization) [47]: > 50 µg/mL; IC50 [48]: > 50 µg/mL; IC50 (neutralization) [49]: > 50 µg/mL; IC50 (neutralization) [50]: > 50 µg/mL; IC50 (neutralization) [51]: > 50 µg/mL; IC50 [52]: > 50 µg/mL; IC50 (neutralization) [53]: > 50 µg/mL; IC50 (neutralization) [54]: 1.93 µg/mL; IC50 (neutralization) [55]: > 50 µg/mL; IC50 (neutralization) [56]: > 50 µg/mL; IC50 [57]: > 50 µg/mL; IC50 (neutralization) [58]: > 50 µg/mL
